Source: PMC10083269, “Basic characterization of antibodies targeting receptors of the tumor necrosis factor receptor superfamily” (Frontiers in Immunology, 2023)

Legend:
[1] = target: T1, CD40 on HT1080-CD40 cells (Homo sapiens, UniProt P25942); assay: cellular competition binding with a GpL-TNFL fusion protein; HT1080 transfectants (2 x 10^4 per well) incubated with an excess of the GpL-free antibody (10 µg/ml) or VHH Fc fusion protein for 30 minutes, then GpL-TNFL added at a concentration close to its KD (typically 1 - 100 ng/ml); remaining specific binding against TNFR negative HT1080 cells; conditions: partners not purified
T1 construct: CD40 expressed on HT1080-CD40 transfectants; also called CD40-expressing cells

CD40(ed)-Fc = target: T2, CD40(ed)-Fc (Homo sapiens, UniProt P25942); assay: cell-free equilibrium binding of a GpL (luciferase) fusion protein on coated plates; black high binding 96-well plates coated with 1 µg/ml CD40(ed)-Fc in 0,1 M carbonate buffer at 4°C overnight, blocked with 10% FCS in PBS, two-fold dilution series of the GpL antibody fusion protein, 37°C, 1 h; non-specific binding from irrTNFR(ed)-Fc wells, from wells blocked with an excess of the GpL-free antibody, or from an …; conditions: one partner purified
T2 construct: extracellular domain of CD40; coated directly on the plate; the legend's footnote says that purified TNFR(ed)-Fc can be coated directly, so it was probably purified; also called Fc fusion protein of the extracellular CD40 domain; source: HEK293T, transient transfection (said of the recombinant proteins in general)

[2] = target: T1, CD40 on HT1080-CD40 cells; assay: cellular equilibrium binding of a GpL (luciferase) fusion protein; adherent HT1080-CD40 cells in 96-well plates (2 x 10^4 cells/well), two-fold dilution series of the GpL antibody fusion protein, 37°C, 30 min to 1 h, five washes with icecold PBS, cell-associated luminescence; non-specific binding from HT1080 cells, from cells blocked with an excess of the GpL-free antibody, or from an irrelevant IgG1-LC:GpL; one …; conditions: partners not purified
TNFR2(ed)-CRD1-3-GpL = target: T3, TNFR2(ed)-CRD1-3-GpL (Homo sapiens, point mutant); assay: cell-free binding of GpL-tagged receptor fragments to plate-captured antibody; plates coated with 1 µg/ml protein G, antibody (1 µg/ml) captured 1 h at 37°C, 500 ng/ml TNFR2-GpL fusion proteins added in medium for 2 h at 37°C, well-associated luminescence; irrelevant IgG1 wells subtracted; conditions: partners not purified
T3 construct: TNFR2, CRD1-CRD3 of the ectodomain; also called GpL-tagged deletion mutant of the TNFR2 ectodomain lacking the stalk region + CRD4; source: HEK293T, transient transfection (PEI); not shown: GpL (Gaussia princeps luciferase), C-terminal, kept
T3 chain: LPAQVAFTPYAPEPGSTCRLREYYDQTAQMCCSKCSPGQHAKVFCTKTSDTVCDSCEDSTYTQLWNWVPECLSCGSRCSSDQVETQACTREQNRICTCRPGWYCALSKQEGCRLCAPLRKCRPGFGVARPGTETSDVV

TNFR2(ed)-CRD1-2-GpL = target: T4, TNFR2(ed)-CRD1-2-GpL (Homo sapiens, point mutant); assay: as above; conditions: partners not purified
T4 construct: TNFR2, CRD1-CRD2 of the ectodomain; also called GpL-tagged deletion mutant of the TNFR2 ectodomain lacking the stalk region + CRDs 3 and 4; source: HEK293T, transient transfection (PEI); not shown: GpL (Gaussia princeps luciferase), C-terminal, kept
T4 chain: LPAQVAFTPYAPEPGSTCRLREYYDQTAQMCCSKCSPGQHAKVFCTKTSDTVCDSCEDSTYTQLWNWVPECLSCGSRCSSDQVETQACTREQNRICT

TNFR2(ed)-CRD1-GpL = target: T5, TNFR2(ed)-CRD1-GpL (Homo sapiens, point mutant); assay: as above; conditions: partners not purified
T5 construct: TNFR2, CRD1 of the ectodomain; also called GpL fusion protein of the TNFR2 CRD1 alone; source: HEK293T, transient transfection (PEI); not shown: GpL (Gaussia princeps luciferase), C-terminal, kept
T5 chain: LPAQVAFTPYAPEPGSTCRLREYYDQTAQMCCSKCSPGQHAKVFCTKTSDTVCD

TNFR2(ed)-CRD1-4-GpL = target: T6, TNFR2(ed)-CRD1-4-GpL (Homo sapiens, point mutant); assay: as above; conditions: partners not purified
T6 construct: TNFR2, CRD1-CRD4 of the ectodomain (stalk region lacking); also called GpL-tagged deletion mutant of the TNFR2 ectodomain lacking the stalk region; source: HEK293T, transient transfection (PEI); not shown: GpL (Gaussia princeps luciferase), C-terminal, kept
T6 chain: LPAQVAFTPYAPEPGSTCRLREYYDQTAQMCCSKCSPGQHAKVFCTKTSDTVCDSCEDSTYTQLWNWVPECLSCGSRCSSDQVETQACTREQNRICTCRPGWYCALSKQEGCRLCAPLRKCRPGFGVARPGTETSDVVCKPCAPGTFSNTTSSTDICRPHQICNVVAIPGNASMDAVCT

T1 sequence (P25942 21-277): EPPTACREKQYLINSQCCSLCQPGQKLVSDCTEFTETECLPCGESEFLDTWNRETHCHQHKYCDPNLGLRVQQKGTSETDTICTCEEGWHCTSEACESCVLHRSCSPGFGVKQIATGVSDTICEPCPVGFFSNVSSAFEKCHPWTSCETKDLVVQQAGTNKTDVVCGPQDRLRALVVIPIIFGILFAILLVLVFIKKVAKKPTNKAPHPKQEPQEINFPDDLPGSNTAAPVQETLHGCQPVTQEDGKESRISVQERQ
T2 sequence (P25942 21-193): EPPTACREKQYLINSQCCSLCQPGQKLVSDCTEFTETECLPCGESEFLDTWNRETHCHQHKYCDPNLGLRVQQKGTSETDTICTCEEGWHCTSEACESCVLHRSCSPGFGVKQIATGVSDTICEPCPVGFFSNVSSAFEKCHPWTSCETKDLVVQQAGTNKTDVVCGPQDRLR

B1: Anti-CD40(ADC)-IgG1 (antibody, V domains shown)
VH: EVQLLESGGGLVQPGGSLRLSCAASGFTFSTYGMHWVRQAPGKGLEWLSYISGGSSYIFYADSVRGRFTISRDNSENALYLQMNSLRAEDTAVYYCARILRGGSGMDLWGQGTLVTVSS
VL: QSVLTQPPSASGTPGQRVTISCTGSSSNIGAGYNVYWYQQLPGTAPKLLIYGNINRPSGVPDRFSGSKSGTSASLAISGLRSEDEADYYCAAWDKSISGLVFGGGTKLTVL
notes: heavy chain of recombinant anti-CD40 IgG1 clone ADC1013; light chain of recombinant anti-CD40 IgG1 clone ADC1013; IgG1; also called ADC1013; variant of the anti-CD40 antibody ADC-1013; source: HEK293T, transient transfection (PEI)
[1]
  binding result: binds

B2: anti-CD40(G28.5)-IgG1-LC : GpL (antibody, V domains shown)
VH: DIQLQQSGPGLVKPSQSLSLTCSVTGYSITTNYNWNWIRQFPGNKLEWMGYIRYDGTSEYTPSLKNRVSITRDTSMNQFFLRLTSVTPEDTATYYCARLDYWGQGTLVTVSS
VL: DIVMTQNPLSLPVSLGDEASISCRSSQSLENSNGNTFLNWFFQKPGQSPQLLIYRVSNRFSGVPDRFSGSGSGTDFTLKISRVEAEDLGVYFCLQVTHVPYTFGGGTTLEIK
notes: heavy chain of recombinant anti-CD40 IgG1 clone G28.5; light chain of recombinant anti-CD40 IgG1 clone G28.5; IgG1; GpL domain on the C-terminus of the light chain; also called GpL-Ab-Fp of the CD40-specific antibody G28.5; source: HEK293T, transient transfection (PEI), cell culture supernatant; not shown: GpL (Gaussia princeps luciferase), C-terminal, kept
CD40(ed)-Fc
  binding result: binds
[2]
  binding result: binds

B3: anti-CD40(G28.5)-IgG1 (antibody, V domains shown)
VH: B2 VH
VL: B2 VL
notes: as the heavy chain of m1; as the light chain of m1, without the GpL domain; IgG1; also called GpL-free version of G28.5; source: HEK293T, transient transfection (PEI)
CD40(ed)-Fc
  binding result: binds
[2]
  binding result: binds

B4: anti-TNFR2(68/69)-IgG1(N297A) (antibody, V domains shown)
VH: QVTLKESGPALVKPTQTLTLTCTFSGFSLSTSGMGVGWIRQPPGKALEWLAHIWWDDDKFYNPSLKSRLTISKDTSKNQVVLTMTNMDPVDTATYYCARLTGTRYFDYWGQGTTVTVSS
VL: DVQMTQSPSSLSASVGDRVTITCKASQDINKFIAWYQQKPGKAPKLLIHYTSTLQPGIPSRFSGSGSGRDYTFTISSLQPEDIATYYCLQYGNLWTFGGGTKVEIK
notes: heavy chain of recombinant anti-TNFR2 IgG1(N297A) clone SBT-002 (68/69); light chain of recombinant anti-TNFR2 clone SBT-002 (68/69); IgG1 with N297A in the Fc; also called SBT-002; anti-TNFR2 antibody 68/69; source: HEK293T, transient transfection (PEI)
TNFR2(ed)-CRD1-3-GpL
  binding result: binds
TNFR2(ed)-CRD1-2-GpL
  binding result: binds
TNFR2(ed)-CRD1-GpL
  binding result: no binding (tested: 500 ng/ml)
TNFR2(ed)-CRD1-4-GpL
  binding result: binds
